Article PMC7948726

Target: 14-3-3β (UniProt P31946)
Experiment: anti-FLAG co-IP, anti-HA blot
Conditions: reference: FLAG-DYRK1A wild type; sites S529

With “DYRK1A (from UniProt Q63470) FLAG-DYRK1A-S529A” the “binding against the reference” value was “weaker”.
